# Measurements taken from US7033788B2, “Protein derived from Agkistrodon saxatilis emelianov and process preparing the same” (priority 2002, dated 2006).
# B1: Saxatilin (protein)
# chain: EAGEECDCGAPANPCCDAATCKLRPGAQCAEGLCCDQCRFMKEGTICRMARGDDMDDYCNGISAGCPRNPFHA
# B2: Recombinant Saxatilin: Saxatilin expressed in Pichia pastoris transformed with pPSAX, obtained in Example 6 (protein)
# chain: B1 chain
# Experiments:
# [1] = system: human platelet rich plasma (PRP); assay type: cell-based; settings: method of Example 1 (collagen-induced, human PRP); read-out: IC50 determined by platelet aggregation inhibition assay
# Protocol: To isolate Saxatilin from the venom of Agkistrodon saxatilis emelianov, 302.4 mg of crude venom from the snake was applied to a SEPHADEX™ G-75 gel filtration column (1.8×100 cm) equilibrated with PBS buffer, and fractionated at a flow rate of 20 ml/h. The activity of Saxatilin was determined by the platelet aggregation inhibition assay: The concentrated human platelet rich plasma (PRP) obtained from 400 ml of human blood was diluted to the concentration of 300,000 platelets/μl. The diluted PRP (450 μl) was mixed with 50 μl of PBS and then incubated in the aggregometer CHROMO-LOGT™, USA) at 37° C. for 3 minutes. After collagen ([…]) was added into the PRP solution to induce the platelet aggregation, the difference of light transmittance was measured.
# Recombinant Saxatilin obtained in Example 6 was assayed by the platelet aggregation inhibition method described in Example 1, and compared with those of wild-type Saxatilin obtained in Example 1 and GRGDSP (SEQ ID NO:7) (see: Table 1), respectively.
# [2] = system: αVβ3 integrin on HUVEC surface; test: HUVEC adhesion to Saxatilin-coated plate; assay type: cell-based, human; settings: pre-incubation of bFGF-stimulated HUVEC 20 min; FIG. 4b
# Protocol: (§1) 96-well plate was coated with recombinant Saxatilin obtained in Example 6 (1 μg/well) as well as Vitronectin (0.5 μg/well) which were dissolved in phosphate buffered saline (PBS) for 16 hr at 4° C. After washing the plate, 10 mg/ml of heat-treated bovine serum albumin (BSA) was added for blocking of uncharged protein binding site. The plate was incubated for 1 hr and washed with PBS. HUVEC was trypsinized and washed with PBS three times, and then, resuspended in serum-free DMEM. 5×10^4 cells were mixed with anti-αVβ3 monoclonal antibody, a synthesized RGD peptide, GRGDSP (SEQ ID NO:7), a synthesized RGE peptide, GRGETP (SEQ ID NO:8) and Saxatilin, and pre-incubated for 20 min at 37° C. Then, the mixture was added to the wells of both Saxatilin and Vitronectin-coated 96-well plate. After 1 hr of incubation at 37° C. under an environment of 5% CO2, the plate was washed with PBS to remove unbound cells, and bound cells were fixed and stained with Coomassie blue. Optical absorbences of the wells were measured at 540 nm to count relative cell numbers (see: FIGS. 4a and 4b).
# [3] = system: αVβ3 integrin on HUVEC surface; test: HUVEC adhesion to Vitronectin-coated plate; assay type: cell-based, human; settings: pre-incubation of bFGF-stimulated HUVEC 20 min; FIG. 4a
# Protocol: To confirm that inhibition of HUVEC proliferation by Saxatilin is due to the direct interaction of Saxatilin with Vitronectin receptor, αVβ3 integrin, localized on the HUVEC surface, it was investigated whether Saxatilin blocks HUVEC from binding to Vitronectin-coated 96-well plate.
# as §1
# [4] = system: ICR mice; test: Collagen/epinephrine-induced thrombosis in mice, viability; assay type: in vivo, mouse; settings: 10 min before collagen + epinephrine
# Protocol: When a mixture of collagen and epinephrine was injected into mice intravenously, thrombus was formed in pulmonary artery, which led to paralysis, dilation of pupil, laboring breath and convulsions, and finally 70% of the mice died not more than 5 min. Thus, it was investigated whether the intravenous injection of recombinant Saxatilin could reduce the thrombosis symptoms.
# At 10 minutes after Saxatilin (0, 0.1, 0.25 and 0.5 mg/kg dissolved in 0.1 ml PBS, respectively) was intravenously injected into the tails of ICR mice, the mixture of collagen and epinephrine (120 μg collagen and 12 μg epinephrine in 0.1 ml PBS) was also injected into the tails of ICR mice, intravenously, and the viability was determined (see: Table 2).
# [5] = system: BCE cell; test: bFGF-stimulated BCE cell proliferation; assay type: cell-based
# [6] = system: Lewis lung carcinoma cells; test: Metastatic Lewis lung carcinoma growth in mice; assay type: in vivo, C57BL/6 mice
# Protocol: 1×10^6 Lewis lung carcinoma cells (purchased from […], Rockville, Md., USA) were injected into the tails of 8-week-old male C57BL/6 mice (Charles river, Japan), intravenously. At 4 day after injection, recombinant Saxatilin obtained from Example 6 was periodically applied to mice by intravenous injection in an amount of 1.25 mg/kg/day (once per day). After 4-weeks of periodical treatment, tumor-bearing mice were sacrificed, and the number of tumor colony was counted by using stereomicroscope.
# Furthermore, to observe the direct effect of Saxatilin on the metastatic lung carcinoma, histochemical study was carried out. Tumor-bearing lung tissue was fixed in paraffin in accordance with the conventionally known method followed by treatment of Bouin's solution for 4 hours. The tissue section of 4 μm thickness was infiltrated with trypsin at 37° C. for 10 min and washed with PBS. The tissue section was stained with hematoxylin and eosin, and then mounted (see: FIGS. 6a, 6b and 6c). FIG. 6a is a photograph showing lung tissue without Lewis lung carcinoma cell; FIG. 6b, lung tissue implanted with Lewis lung carcinoma cell and then treated with PBS; and, FIG. 6c, lung tissue implanted with Lewis lung carcinoma cell and then treated with Saxatilin. […] As illustrated as above, it was assumed that the suppression of metastatic tumor growth in Saxatilin-treated mice was due to blockade of Saxatilin against angiogenesis, which was essential for the secondary tumor growth.
# [7] = system: human platelet rich plasma; test: Platelet aggregation inhibition assay, ADP-induced (Example 5); assay type: cell-based
# Protocol: After ADP was added into each of the PRP solutions to induce the platelet aggregation, the turbidity was measured, respectively (see: FIG. 1).
# [8] = system: chick chorioallantoic membrane (CAM); test: Chick chorioallantoic membrane (CAM) assay, bFGF-stimulated angiogenesis; assay type: in vivo; settings: 5 μg applied to CAM, observed at 72 hr; FIG. 5b
# Protocol: Chick chorioallantoic membrane (CAM) assay, a simulated in vivo model, was carried out to examine the effect of Saxatilin on bFGF-stimulated angiogenesis. A part of the rind of fertilized 3-day-old egg was broken carefully, and sealed with transparent tape, and incubated for 10 days at 37° C. under an environment of 60% humidity. Then, bFGF was applied to the chick chorioallantoic membrane (CAM) of individual embryo (6 ng/embryo) to induce angiogenesis. After further incubation of 24 hr, PBS as a negative control and 5 μg recombinant Saxatilin obtained from Example 6 were applied to CAM, respectively. At 72 hr after treatment, the blood vessels of embryos were observed (see: FIGS. 5a and 5b).
# [9] = system: male C57BL/6 mouse; test: Acute toxicity (LD50); assay type: in vivo; settings: subcutaneous injection, 7 days
# Protocol: To examine the acute toxicity of Saxatilin as anti-platelet aggregation agent and anti-tumor agent, Saxatilin was injected into male C57BL/6 mouse subcutaneously and the dead were counted to determine LD50 for 7 days.
# [10] = system: HUVEC; test: bFGF-stimulated HUVEC proliferation inhibition assay; assay type: cell-based, human; settings: 0, 20, 30 μg/ml; 1 ng/ml bFGF; 72 hr; FIG. 3
# Protocol: To investigate whether recombinant Saxatilin containing RGD sequence inhibits the endothelial cell proliferation, proliferation inhibition assay was performed using HUVEC.
# HUVEC was cultured on 24-well microplate coated with gelatin at 37° C. for 24 hr under an environment of 5% CO2. […] Then, cells were further incubated for 20 min and treated with 1 ng/ml of bFGF solution. After incubation of 72 hr, cells were trypsinized and the cell numbers were counted to determine cell viability (see: FIG. 3).
# [11] = 1.25 mg/kg/day i.v. from day 4, 4 weeks, C57BL/6 mice
Molecule,IC50 [1] [nM],HUVEC adhering to Saxatilin [2],HUVEC adhering to Vitronectin [3],Mortal group/Total group ([4]; 0.1 mg/kg i.v.),Viability ([4]; 0.1 mg/kg i.v.),Mortal group/Total group ([4]; 0.25 mg/kg i.v.),Viability ([4]; 0.25 mg/kg i.v.),Mortal group/Total group ([4]; 0.5 mg/kg i.v.),Viability ([4]; 0.5 mg/kg i.v.),bFGF-stimulated BCE cell proliferation [5],"Average colony number [6, 11]","Inhibition rate (%) [6, 11] [%]","effect on metastatic tumor growth ([6]; 1.25 mg/kg/day i.v., 4 weeks)","metastatic tumor growth in lung tissue, histochemical study ([6]; hematoxylin and eosin stained lung sections, FIG. 6c)","toxicity on tested mice ([6]; tumor-bearing mice, 1.25 mg/kg/day i.v.)","IC50 ([7]; ADP-induced aggregation, human PRP, 25° C.) [nM]","inhibitory effect relative to GRGDSP peptide ([7]; ADP-induced platelet aggregation, more potent than GRGDSP) [times]",effect on bFGF-stimulated angiogenesis (CAM) [8],LD50 [9],effect on HUVEC growth [10]
"N=C(N)NCCC[C@H](NC(=O)CN)C(=O)NCC(=O)N[C@@H](CC(=O)O)C(=O)N[C@@H](CO)C(=O)N1CCC[C@H]1C(=O)O [GRGDSP, reference compound]",270000,prevented HUVEC from adhering,prevented HUVEC from adhering,,,,,,,,,,,,,,,,,
B1,,prevented HUVEC from adhering,prevented HUVEC from adhering,16/20,20,11/20,55,3/20,85,potently inhibited,0.7 ± 0.6,95,potently inhibited the metastatic tumor growth,not observed,no toxicity,179,1000,had an inhibitory effect on angiogenesis,about 1100 mg/kg,inhibited the HUVEC growth in a dose-dependent manner
B2,139,,,,,,,,,,,,,,,,,,,
